Usually Kd stands for the equilibrium constant for the complex coming apart. A lower Kd goes with tighter binding.

In paper PMC9079162 (Computational and Structural Biotechnology Journal, 2022) one finds Kd data, which are given here for one molecule.

In this experiment the target is human complement regulatory factor H (hfH) (human, UniProt P08603 19-1231). Put plainly: SPR. (In SPR one partner is held on a chip, and binding of the other changes the refractive index at the surface.)
human complement regulatory factor H (hfH), sequence (P08603 19-1231): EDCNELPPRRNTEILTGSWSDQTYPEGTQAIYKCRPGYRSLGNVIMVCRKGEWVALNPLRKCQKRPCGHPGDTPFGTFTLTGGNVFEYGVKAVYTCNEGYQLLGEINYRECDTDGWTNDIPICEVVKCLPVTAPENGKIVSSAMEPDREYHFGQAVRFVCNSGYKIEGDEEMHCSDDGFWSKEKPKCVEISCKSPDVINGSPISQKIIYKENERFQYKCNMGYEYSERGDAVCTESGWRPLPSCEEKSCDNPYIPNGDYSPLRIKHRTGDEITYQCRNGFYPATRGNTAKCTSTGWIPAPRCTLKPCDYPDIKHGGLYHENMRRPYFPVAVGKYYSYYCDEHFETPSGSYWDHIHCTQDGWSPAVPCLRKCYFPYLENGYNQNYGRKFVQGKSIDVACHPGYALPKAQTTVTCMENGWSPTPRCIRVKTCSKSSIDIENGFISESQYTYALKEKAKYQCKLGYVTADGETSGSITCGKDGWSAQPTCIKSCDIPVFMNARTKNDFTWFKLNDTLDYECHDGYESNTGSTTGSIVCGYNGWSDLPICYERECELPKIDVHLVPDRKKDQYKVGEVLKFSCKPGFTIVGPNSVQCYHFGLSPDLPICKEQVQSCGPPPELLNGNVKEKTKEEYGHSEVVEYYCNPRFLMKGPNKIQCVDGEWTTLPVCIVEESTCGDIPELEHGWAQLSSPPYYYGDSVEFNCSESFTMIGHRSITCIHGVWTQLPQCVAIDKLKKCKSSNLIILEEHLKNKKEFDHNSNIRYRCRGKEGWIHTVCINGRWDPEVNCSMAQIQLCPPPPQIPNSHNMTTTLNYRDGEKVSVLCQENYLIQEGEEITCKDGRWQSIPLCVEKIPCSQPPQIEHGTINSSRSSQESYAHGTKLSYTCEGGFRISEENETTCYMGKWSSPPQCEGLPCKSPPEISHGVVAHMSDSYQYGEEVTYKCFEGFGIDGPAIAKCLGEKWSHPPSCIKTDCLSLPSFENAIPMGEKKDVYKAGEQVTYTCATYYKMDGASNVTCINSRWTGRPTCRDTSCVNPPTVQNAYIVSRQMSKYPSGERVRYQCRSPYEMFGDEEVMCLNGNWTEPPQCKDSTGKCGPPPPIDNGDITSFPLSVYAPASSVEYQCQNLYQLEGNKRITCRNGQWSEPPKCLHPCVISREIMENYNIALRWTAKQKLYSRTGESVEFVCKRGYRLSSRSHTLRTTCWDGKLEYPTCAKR

B1: factor H binding protein (fHbp) variant1 (natural protein)
chain: CSSGGGGVAADIGAGLADALTAPLDHKDKGLQSLTLDQSVRKNEKLKLAAQGAEKTYGNGDSLNTGKLKNDKVSRFDFIRQIEVDGQLITLESGEFQVYKQSHSALTAFQTEQIQDSEHSGKMVAKRQFRIGDIAGEHTSFDKLPEGGRATYRGTAFGSDDAGGKLTYTIDFAAKQGNGKIEHLKSPELNVDLAAADIKPDGKRHAVISGSVLYNQAEKGSYSLGIFGGKAQEVAGSAEVKTVNGIRHIGLAAKQ
With B1, binding was put at a Kd of 22.7 nM.
